Experimental data as given in PMC12820563, “FoxP3 forms a head-to-head dimer in vivo and stabilizes its multimerization on adjacent microsatellites”.

Key:
Assay in all cases: EMSA; monomer; Pull-down: 20 mM Tris-HCl pH 7.5, 100 mM NaCl, 1.5 mM MgCl2, room temperature, 0.4 uM MBP protein, 0.1 uM DNA (NFAT 0.2 uM); EMSA: 20 mM HEPES pH 7.5, 150 mM NaCl, 1.5 mM MgCl2, 2 mM DTT, 4 C, 0.2 uM DNA (RBR-FKH 0.8 uM, NFAT 0.4 uM)
[1] = biological target: T1, FoxP3 RBR-FKH;NFAT1 DBD (Mus musculus;Mus musculus?, UniProt Q99JB6;Q60591 284-423;394-680, |); settings: protein: recombinant;recombinant; tags: none (His6-NusA cleaved);none (His6-NusA cleaved); copies: 1;1; blunt
T1 sequence 1: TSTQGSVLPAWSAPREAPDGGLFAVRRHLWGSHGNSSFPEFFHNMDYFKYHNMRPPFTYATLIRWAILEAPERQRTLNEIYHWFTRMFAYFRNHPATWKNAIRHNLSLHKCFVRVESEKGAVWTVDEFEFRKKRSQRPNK
T1 sequence 2: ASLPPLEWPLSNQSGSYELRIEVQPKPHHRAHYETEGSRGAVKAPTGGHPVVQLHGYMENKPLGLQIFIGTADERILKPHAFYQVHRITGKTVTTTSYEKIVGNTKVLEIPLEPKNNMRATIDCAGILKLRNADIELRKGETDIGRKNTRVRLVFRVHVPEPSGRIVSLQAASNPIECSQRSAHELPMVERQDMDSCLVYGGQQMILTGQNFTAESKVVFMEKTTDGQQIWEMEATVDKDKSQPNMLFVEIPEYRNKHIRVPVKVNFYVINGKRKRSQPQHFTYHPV

[2] = biological target: T2, FoxP1RBR-FoxP3FKH;NFAT1 DBD (Mus musculus;Mus musculus?, UniProt P58462;Q60591 427-492+Q99JB6:337-423;394-680, internal_change|); settings: protein: recombinant;recombinant; tags: none (His6-NusA cleaved);none (His6-NusA cleaved); copies: 1;1; blunt
T2 sequence 1: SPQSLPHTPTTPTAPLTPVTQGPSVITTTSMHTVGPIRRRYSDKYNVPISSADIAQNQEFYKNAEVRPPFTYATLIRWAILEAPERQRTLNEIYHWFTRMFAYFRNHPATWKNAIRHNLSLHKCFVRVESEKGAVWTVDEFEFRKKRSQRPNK
T2 sequence 2: T1 sequence 2

[3] = biological target: T3, FoxP1 RBR-FKH;NFAT1 DBD (Mus musculus;Mus musculus?, UniProt P58462;Q60591 427-579;394-680, |); settings: protein: recombinant;recombinant; tags: none (His6-NusA cleaved);none (His6-NusA cleaved); copies: 1;1; blunt
T3 sequence 1: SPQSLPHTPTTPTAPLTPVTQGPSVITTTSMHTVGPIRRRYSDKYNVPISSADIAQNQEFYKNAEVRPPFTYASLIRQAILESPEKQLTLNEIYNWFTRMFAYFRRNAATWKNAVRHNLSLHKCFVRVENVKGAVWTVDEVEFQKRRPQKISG
T3 sequence 2: T1 sequence 2

[4] = biological target: T4, FoxP3RBR-FoxP1FKH;NFAT1 DBD (Mus musculus;Mus musculus?, UniProt Q99JB6;Q60591 284-336+P58462:493-579;394-680, internal_change|); settings: protein: recombinant;recombinant; tags: none (His6-NusA cleaved);none (His6-NusA cleaved); chain copies: 2;1; blunt
T4 sequence 1: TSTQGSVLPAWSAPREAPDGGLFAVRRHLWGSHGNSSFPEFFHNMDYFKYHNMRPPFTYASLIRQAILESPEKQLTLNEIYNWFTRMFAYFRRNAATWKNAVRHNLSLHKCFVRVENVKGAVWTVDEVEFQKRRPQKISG
T4 sequence 2: T1 sequence 2

Measured: binding result

B1: DNA2 (NFAT sFKHM) (dsDNA)
DNA 1: TTAGGAAAATTTGTTTACTCCTCGCGGCAAA
DNA 2: TTTGCCGCGAGGAGTAAACAAATTTTCCTAA
binds: all assays above
